# According to patent US20220356229A1 (published 2022):
# B1: antibody 474 (antibody, V domains shown)
# VH: EVQLVESGGGLVQPGGSLRLSCAASGFTFSSYWMHWVRQAPGKGLVWVSRINSDGSSTSYADSVKGRFTISRDNAKNTLYRQMNSLRAEDTAVYYCALGPLDIVGSYYYYGMDVWGQGTTVTVSS
# VL: NFMLTQPHSVSESPGKTVTISCTGSSGSIASNYVQWYQQRPGSAPTTVIYEDNQRPSGVPDRFSGSIDSSSNSASLTISGLKTEDEADYYCQSYDSSNQDVVFGGGTKLTVL
# B2: antibody 475 (antibody, V domains shown)
# VH: QVQLVESGGGVVQPGRSLRLSCAASGFTFSSYAMHWVRQAPGKGLEWVTFISHEGSNKYYADSVKGRFTISRDNSKNTLYLQMNSLRAEDTAVYYCARTFEYSSSSATGDFDYWGQGTLVTVSS
# VL: QSVLTQPPSVSGAPGQRVTISCTGSSSNIGAGYDVHWYQQLPGTAPKLLIYGNSNRPSGVPDRFSGSKSGTSASLAITGLQAEDEADYYCQSYDSSLSGVVFGGGTKLTVL
# B3: antibody 476 (antibody, V domains shown)
# VH: QVQLVQSGSELKKPGASVKVSCKASGYTFTSYAMNWVRQAPGQGLEWMGWINTNTGNPTYAQGFTGRFVFSLDTSVSTAYLQISSLKAEDTGVYYCARDHELPNSSSWFGHFEYWGQGTLVTVSS
# VL: SYELTQPPSVSVSPGQTARITCSGDALPKQYAYWYQQKAGQAPVLVIYKDSERRSGIPERFSGSSSGTTVTLTISGVQAEDEADYYCQSADSSGTSVVFGGGTKLTVL
# B4: antibody 477 (antibody, V domains shown)
# VH: QVQLVESGGGVVQPGRSLRLSCAASGITFSSYAMHWVRQAPGKGLEWVAVISYDGSDKYHADSVKGRFAISRDNSKNTLYLQMNSLRAEDTAVYYCAKDKGIAVAGTGWIRPDPEYYFDYWGQGTLVTVSS
# VL: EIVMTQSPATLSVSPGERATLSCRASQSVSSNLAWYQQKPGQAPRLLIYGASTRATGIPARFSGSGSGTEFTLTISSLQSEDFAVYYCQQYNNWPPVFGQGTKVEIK
# B5: antibody 485 (antibody, V domains shown)
# VH: QVQLQESGPGLVKPSGTLSLTCAVSGASISSSNWWSWVRQPPGKGLEWIGEIYHSGSTNYNPSLKSRVTISVDKSKNQFSLKLSSVTAADTAVYYCARRSYYGSGSYYPFDYWGQGTLVTVSS
# VL: QSALTQPASVSGSPGQSITISCTGTSSDVGSYNLVSWYQQHPGKAPKLMIYEGRKRPSGVSNRFSGSKSGNTASLTISGLQAEDEADYYCCSYAGSSTYVFGTGTKVTVL
# B6: anti-coronavirus antibody 544 (antibody, V domains shown)
# VH: QVQLQQWGAGLLKPSETLSLTCAVYGGSFSGYYWSWIRQPPGKGLEWIGEINHSGSTNYNPSLKSRVTISVDTSKNQFSLKLSSVTAADTAVYYCARGFKWFGELLFGAQGTLVTVSS
# VL: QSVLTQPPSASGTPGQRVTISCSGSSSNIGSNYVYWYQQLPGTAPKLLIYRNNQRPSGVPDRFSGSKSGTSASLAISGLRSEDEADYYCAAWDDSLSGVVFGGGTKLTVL
# B7: anti-coronavirus antibody 545 (antibody, V domains shown)
# VH: QVQLVQSGSELKKPGASVKVSCKASGYTFTSYAMNWVRQAPGQGLEWMGWINTNTGNPTYAQGFTGRFVFSLDTSVSTAYLQISVLKAEDTGVYYCARDHELPNSSSWFGHFEYWGQGTLVTVSS
# VL: SYELTQPPSVSVSPGQTARITCSGDALPKQYAYWYQQKAGQAPVLVIYKDSERRSGIPERFSGSSSGTTVTLTISGVQAEDEADYYCQSADSSGTSVVFGGGTKLTVL
# B8: anti-SARS-CoV-2 antibody 923 (antibody, V domains shown)
# VH: EVQLVESGGGVVRPGGSLRLSCAASGFIFDDYDMTWVRQAPGKGLEWVSGISWNGGNTGYADSVKGRFTISRDNAKNSLYLQMNSLRAEDTALYHCAVIMSPIPRYSGYDWAGGAFDIWGQGTMVTVSS
# VL: SSELTQDPAVSVALGQTVRITCQGDSLRSYYASWYQQKPGQVPILVIYDKNNRPSGIPDRFSGSSSGNTASLTITGAQAEDEADYYCNSRDSSGNAVVFGGGTKLTVLG
# B9: anti-SARS-CoV-2 antibody 970 (antibody, V domains shown)
# VH: EVQLVESGGGLVQPGGSLRLSCAASGFTFSSYWMSWVRQAPGKGLEWVANINKDGSEKYYVDSVKGRFTISRDNAKNSLYLQMNSLRAEDTAVYFCARDYRYFDWLLSQIDLEIDYFDYWGQGTLVTVSS
# VL: not shown
# B10: anti-SARS-CoV-2 antibody 1037 (antibody, V domains shown)
# VH: QITLKESGPTLVKPTQTLTLTCTFSGFSLSTSGVGVGWIRQPPGKALEWLALIYWDDDKRYSPSLKSRLTITKDTSKNQVVLTMTNMDPVDTATYYCAHHTITRINDYWGQGTLVTVSS
# VL: QSALTQPASVSGSPGQSITISCTATSSDVGAYNYVSWYQQHPGKAPKLMIYDVSKRPSGVSNRFSGSKSGNTASLTISGLQAEDEADYYCSSYTSSSTVFGGGTKLTVLG
# B11: anti-SARS-CoV-2 antibody 1585 (antibody, V domains shown)
# VH: QVQLVESGGGVVQPGRSLRLSCAASGFTFSRFTLHWVRQAPGKGLEWVAVISYDGSNKYYADSVKGRFTISRDNSKSTLYLQMNSLRAEDTGVYYCARDPSTVTGYFDYWGQGTLVTVSS
# VL: SYVLTQPPSVSVAPGKTAKISCGGDSIGSKSVHWYQQKPGQAPVLVIYYDNDRPSGIPERFSGSNSGNTATLTISRVEAGDEADYYCQVWDIGVVFGGGTKLTVLG
# B12: mAb 1444 (antibody, V domains shown)
# VH: QVQLVQSGAEVKKPGASVKVSCKASGYTFTAYYMHWVRQAPGQGLEWMGWINPNSDDTNYAQKFQGRVTMTRDTSISTAYMELSRLRSDDTAVYYCAREEGVFTIGDRYFDLWGRGTLVSVSS
# VL: QTVVTQEPSFSVSPGGTVTLTCGLSSGSVSTSYYPSWYQQTPGQAPRTLIYNTNTRSSGVPDRFSGSILGNKAALTITGAQADDESDYYCVLYMGSGIWVFGGGTKLTVLG
# notes: human IgG1
# B13: mAb 1495 (antibody, V domains shown)
# VH: QVQLVESGGGVVQPGRSLRLSCTASGFTFSSYAMHWVRQAPGKGLEWVAVISYDGNNKYYGDSVKGRFTISRDNSKNTLYLQMNSLRAEDTAVYYCAKGADTPHYSGYHFLSVGYYFYGMDVWGQGTTVTVSS
# VL: DIQMTQSPSSLSASVGDRVTITCRASQSISYYLNWYQQKPGKAPQLLIYAASSLQSGVPSRFSGSRSGTDFTLTISSLQPEDFATYYCQQSYSTPFTFGPGTKVDIKR
# notes: human IgG1
# B14: mAb 1538 (antibody, V domains shown)
# VH: EVQLLESGGGLVQPGGSLRLSCAASGFTFSSYAMSWVRQAPGKGLEWVSGISDSGGSTYYADYVKGRFTISRDNSKDTLYLQMNSLRAEDTAVYYCAKDRGNEYALTHYYYYAMDVWGQGTTVTVSS
# VL: DIQMTQSPSSLSASVGDRVTITCRASQSISSYLNWYQQKPGKAPKLLIYAAYSLQSGVPSRFSGGGSGTDFTLTISSLQPEDFATYFCQQSYSTPITFGQGTRLEIKR
# notes: human IgG1
# B15: mAb 1585 (antibody, V domains shown)
# VH: QVQLVESGGGVVQPGRSLRLSCAASGFTFSRFTLHWVRQAPGKGLEWVAVISYDGSNKYYADSVKGRFTISRDNSKSTLYLQMNSLRAEDTGVYYCARDPSTVTGYFDYWGQGTLVTVSS
# VL: SYVLTQPPSVSVAPGKTAKISCGGDSIGSKSVHWYQQKPGQAPVLVIYYDNDRPSGIPERFSGSNSGNTATLTISRVEAGDEADYYCQVWDIGVVFGGGTKLTVLG
# notes: human IgG1
# Assays:
# SARS-CoV Spike protein [1] = molecular target: SARS-CoV Spike protein (SARS-CoV, UniProt P59594 14-1190)
# SARS-CoV Spike protein [2] = molecular target: SARS-CoV Spike protein (SARS-CoV, UniProt P59594 14-1190); remark: listed apart in the source
# [3] = molecular target: SARS-CoV-2 full length Spike protein, wild type, expressed on CHO cells (SARS-CoV-2, UniProt P0DTC2 14-1273)
# [4] = molecular target: SARS-CoV full length Spike protein, wild type, expressed on CHO cells (SARS-CoV, UniProt P59594 14-1255)
# SARS-CoV-2 Spike protein = SARS-CoV-2 Spike protein (SARS-CoV-2, UniProt P0DTC2 14-1208); assay: HT-SPR (Carterra LSA), mAb coupled to chip, Spike in solution, 1:1 Langmuir fit
binder,measurement,setting,value
B1,bead binding signal (fold over isotype control),SARS-CoV Spike protein [1],1.1
B2,bead binding signal (fold over isotype control),SARS-CoV Spike protein [1],1.18
B3,bead binding signal (fold over isotype control),SARS-CoV Spike protein [1],1.04
B4,bead binding signal (fold over isotype control),SARS-CoV Spike protein [1],1.3
B5,bead binding signal (fold over isotype control),SARS-CoV Spike protein [1],1.12
B6,binding signal (fold over isotype control),SARS-CoV Spike protein [2],1.05 fold over isotype control
B7,binding signal (fold over isotype control),SARS-CoV Spike protein [2],1.13 fold over isotype control
B8,"median fluorescence intensity, fold over isotype control",[3],59 fold over isotype
same,"median fluorescence intensity, fold over isotype control",[4],118 fold over isotype
B9,"median fluorescence intensity, fold over isotype control",[3],20.6 fold over isotype
same,"median fluorescence intensity, fold over isotype control",[4],124 fold over isotype
B10,"median fluorescence intensity, fold over isotype control",[3],83 fold over isotype
same,"median fluorescence intensity, fold over isotype control",[4],23.1 fold over isotype
B11,"median fluorescence intensity, fold over isotype control",[3],9.55 fold over isotype
same,"median fluorescence intensity, fold over isotype control",[4],19.9 fold over isotype
B12,Kd,SARS-CoV-2 Spike protein,≤ 0.0221 nM
same,koff,SARS-CoV-2 Spike protein,≤ 1e-05 s⁻¹
same,kon,SARS-CoV-2 Spike protein,453000 M⁻¹ s⁻¹
B13,Kd,SARS-CoV-2 Spike protein,0.0972 nM
same,koff,SARS-CoV-2 Spike protein,1.01e-05 s⁻¹
same,kon,SARS-CoV-2 Spike protein,103000 M⁻¹ s⁻¹
B14,Kd,SARS-CoV-2 Spike protein,≤ 0.0754 nM
same,koff,SARS-CoV-2 Spike protein,≤ 1e-05 s⁻¹
same,kon,SARS-CoV-2 Spike protein,133000 M⁻¹ s⁻¹
B15,Kd,SARS-CoV-2 Spike protein,≤ 0.0171 nM
same,koff,SARS-CoV-2 Spike protein,≤ 1e-05 s⁻¹
same,kon,SARS-CoV-2 Spike protein,586000 M⁻¹ s⁻¹
